Source: US12564623B2, “Methods and compositions for treating cancer” (The University of Chicago, priority 2017, dated 2026)

B1: CASP3: purified human CASP3 (Abcam) (protein)
chain: MENTENSVDSKSIKNLEPKIIHGSESMDSGISLDNSYKMDYPEMGLCIIINNKNFHKSTGMTSRSGTDVDAANLRETFRNLKYEVRNKNDLTREEIVELMRDVSKEDHSKRSSFVCVLLSHGEEGIIFGTNGPVDLKKITNFFRGDRCRSLTGKPKLFIIQACRGTELDCGIETDSGVDDDMACHKIPVEADFLYAYSTAPGYYSWRNSKDGSWFIQSLCAMLKQYADKLEFMHILTRVNRKVATEFESFSFDATFHAKKQIPCIVSMLTKELYFYH
B2: ANXA6: purified human ANXA6 (R&D Systems) (protein, UniProt P08133 2-673, looked up)
Annexin A6: AKPAQGAKYRGSIHDFPGFDPNQDAEALYTAMKGFGSDKEAILDIITSRSNRQRQEVCQSYKSLYGKDLIADLKYELTGKFERLIVGLMRPPAYCDAKEIKDAISGIGTDEKCLIEILASRTNEQMHQLVAAYKDAYERDLEADIIGDTSGHFQKMLVVLLQGTREEDDVVSEDLVQQDVQDLYEAGELKWGTDEAQFIYILGNRSKQHLRLVFDEYLKTTGKPIEASIRGELSGDFEKLMLAVVKCIRSTPEYFAERLFKAMKGLGTRDNTLIRIMVSRSELDMLDIREIFRTKYEKSLYSMIKNDTSGEYKKTLLKLSGGDDDAAGQFFPEAAQVAYQMWELSAVARVELKGTVRPANDFNPDADAKALRKAMKGLGTDEDTIIDIITHRSNVQRQQIRQTFKSHFGRDLMTDLKSEISGDLARLILGLMMPPAHYDAKQLKKAMEGAGTDEKALIEILATRTNAEIRAINEAYKEDYHKSLEDALSSDTSGHFRRILISLATGHREEGGENLDQAREDAQVAAEILEIADTPSGDKTSLETRFMTILCTRSYPHLRRVFQEFIKMTNYDVEHTIKKEMSGDVRDAFVAIVQSVKNKPLFFADKLYKSMKGAGTDEKTLTRIMVSRSEIDLLNIRREFIEKYDKSLHQAIEGDTSGDFLKALLALCGGED
B3: proteinase 3 (protein, listed as Homo sapiens)
chain: MAHRPPSPALASVLLALLLSGAARAAEIVGGHEAQPHSRPYMASLQMRGNPGSHFCGGTLIHPSFVLTAAHCLRDIPQRLVNVVLGAHNVRTQEPTQQHFSVAQVFLNNYDAENKLNDVLLIQLSSPANLSASVATVQLPQQDQPVPHGTQCLAMGWGRVGAHDPPAQVLQELNVTVVTFFCRPHNICTFVPRRKAGICFGDSGGPLICDGIIQGIDSFVIWGCATRLFPDFFTRVALYVDWIRSTLRRVEAKGRP
B4: murine neutrophil elastase (protein, listed as Mus musculus)
chain: MALGRLSSRTLAAMLLALFLGGPALASEIVGGRPARPHAWPFMASLQRRGGHFCGATLIARNFVMSAAHCVNGLNFRSVQVVLGAHDLRRQERTRQTFSVQRIFENGFDPSQLLNDIVIIQLNGSATINANVQVAQLPAQGQGVGDRTPCLAMGWGRLGTNRPSPSVLQELNVTVVTNMCRRRVNVCTLVPRRQAGICFGDSGGPLVCNNLVQGIDSFIRGGCGSGLYPDAFAPVAEFADWINSIIRSHNDHLLTHPKDREGRTN

Experiments:
[1] = test system: MDA-MB-231 cells; experiment: Cancer cell killing, Calcein AM staining; type: cell-based, human; conditions: for cancer cell killing in combination with neutrophil conditioned media: Neu-CM 4 μg/mL, DOX 0.3 μM or PTX 3 nM, 4h; for cancer cell killing activity of purified protein: increasing doses, 5h
Method: Approach to identify the factor(s) mediating selective killing. A quantitative cancer cell killing assay was developed to track the bioactive factor(s). MDA-MB-231 cells were treated with various doses of PMN media and cell viability was assessed by Calcein AM live cells fluorescence staining. […] (FIG. 3B) PMN media was passed through a 0.22 μm filter, and protein concentration and killing activity on MDA-MB-231 cancer cells was measured in both pre- and post-filter solutions. […] ELANE and ECP levels in PMN media pre- and post-filtration were quantified by mass spectrometry (spectral counts).
To determine if ELANE and/or ECP were responsible, the inventors (1) immuno-depleted ELANE or ECP from PMN media; (2) treated cancer or normal cells with purified native ELANE or ECP from commercial sources. (FIG. 6A) ELANE or ECP were depleted from PMN media by immunoprecipitation; depletion was confirmed by western blotting. PMN media pre-depletion=Orig. and post-depletion=FT. Non-specific IgG was used as a control. (FIG. 6B) MDA-MB-231 cells or human monocyte-derived macrophages (HMDMs) were treated with purified native ELANE or ECP at various doses for 24h, and killing was assessed by Calcein AM staining. (FIG. 6C) MDA-MB-231 cells and HMDMs were treated with levels of ELANE (0.25 μg/mL) or ECP (0.05 μg/mL) that were present in the PMN media, alone or in combination for 24 hrs, and killing was examined by Calcein AM staining.
High doses of ECP or ELANE can kill cancer cells. The inventors sought to determine whether adding purified human ECP (Lee Biosolutions), human ELANE (Abcam), human DEFA1 (Abcam), human ANXA6 (R&D Systems) or human CASP3 (Abcam) individually could kill cancer cells without killing non-cancer cells. Increasing doses of each protein were added to MDA-MB-231 cells for 5h or human monocyte-derived macrophages (HMDMs) for 24 h and cell viability was determined by Calcein-AM.
ELANE and ECP synergize to selectively kill cancer cells. MDA-MB-231 and human monocyte-derived macrophages (HMDMs) were treated with levels of ELANE (0.25 μg/mL) or ECP (0.05 μg/mL) that were present in the PMN media, alone or in combination for 24 hrs. killing was examined by Calcein AM staining.
Combining chemotherapeutics and neutrophil conditioned media enhances the killing of human triple negative breast cancer cells. MDA-MB-231 cells were treated with neutrophil conditioned media (Neu-CM; 4 μg/mL), doxorubicin (DOX; 0.3 μM), or paclitaxel (PTX; 3 nM) for 4h, individually or in combination, and cell viability was assessed by Calcein-AM.
(§1) Other serine proteases cleave the C-terminal domain of CD95, and the ability to cleave the C-terminal domain is associated with cancer cell killing. (FIG. 12A) Full length recombinanat CD95 protein was incubated with various serine proteases (human ELANE (80 nM), PR3 (80 nM), CSTG (80 nM), PPE (80 nM), mouse ELANE (80 nM), rat ELANE (500 nM), GZMB (80 nM), or Trypsin (250 nM)), or other types of proteases (CTSC (80 nM); or MMP7 (80 nM), MMP9 (80 nM), CTSD (80 nM) not shown) at 37° C. for 2 hours. Degradation was assessed by SDS-PAGE followed by coomassie blue staining. (FIG. 12B) MDA-MB-231 cancer cells were incubated with various proteases for 24 hrs. Cell viability was assessed by Calcein AM staining.
(FIG. 13A) MDA-MB-231 cancer cells were treated with various doses of purified native ELANE or purified native porcine pancreatic elastase (PPE) for 6 h, and killing was assessed by Calcein AM staining. (FIG. 13B). Purified native ELANE or purified native PPE was incubated with different concentrations of alpha-1-anti-trypsin (A1AT) for 15 mins. Catalytic activity was measured using a chromogenic substrate assay. Cancer cell killing capability was determined by treating MDA-MB-231 cancer cells with ELANE or PPE in the presence or absence of A1AT for 6h, followed by Calcein AM staining. (FIG. 13C) Catalytic activity was measured using a chromogenic substrate assay. […]

[2] = molecular target: T1, ELANE (Homo sapiens, UniProt P08246); experiment: Anti-ELANE magnetic bead pull-down from neutrophil conditioned media, western blotting; type: binding; conditions: anti-ELANE antibody beads
T1 construct: incubated the neutrophil conditioned media with magnetic beads coupled to an anti-ELANE antibody; endogenous in cells; host or cells: human peripheral blood neutrophils from healthy donors (conditioned media)
T1 sequence (P08246 30-267): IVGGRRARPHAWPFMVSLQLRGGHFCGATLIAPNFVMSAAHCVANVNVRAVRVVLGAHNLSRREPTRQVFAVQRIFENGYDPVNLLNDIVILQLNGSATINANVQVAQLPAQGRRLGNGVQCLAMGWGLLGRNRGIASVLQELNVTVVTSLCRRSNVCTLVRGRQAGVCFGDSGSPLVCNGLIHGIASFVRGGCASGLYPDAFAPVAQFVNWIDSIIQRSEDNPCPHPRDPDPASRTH
Description: Identification of ECP, ELANE, ANXA6, DEFA1, and CASP3 as candidate cancer cell killing proteins in the neutrophil conditioned media. Neutrophil conditioned media was obtained from 2 different donors (Donor 1 and Donor 2). […] To determine the identity of the proteins depleted by the 0.2 μm sterile filter, the inventors performed quantitative proteomics analysis on the conditioned media from each donor pre- and post-filter. Proteomics analysis identified 2000 proteins, 4 of which (ECP, ELANE, ANXA6, and DEFA1) were depleted in samples from both donors (G-test, p<0.05). The inventors explored the possibility that these proteins might interact with or complement one another. This hypothesis was tested using two approaches. First, the inventors incubated the neutrophil conditioned media with magnetic beads coupled to an anti-ELANE antibody and analyzed the supernatant (sup), wash, and eluent (elute) by western blotting.

[3] = molecular target: T2, CD95 (Homo sapiens, UniProt P25445); experiment: Recombinant CD95 degradation, SDS-PAGE and coomassie blue; type: biochemical; parameters: Recombinant proteins (1 μg) corresponding to full length CD95 (FL-CD95); conditions: purified CD95
T2 sequence (P25445 26-335): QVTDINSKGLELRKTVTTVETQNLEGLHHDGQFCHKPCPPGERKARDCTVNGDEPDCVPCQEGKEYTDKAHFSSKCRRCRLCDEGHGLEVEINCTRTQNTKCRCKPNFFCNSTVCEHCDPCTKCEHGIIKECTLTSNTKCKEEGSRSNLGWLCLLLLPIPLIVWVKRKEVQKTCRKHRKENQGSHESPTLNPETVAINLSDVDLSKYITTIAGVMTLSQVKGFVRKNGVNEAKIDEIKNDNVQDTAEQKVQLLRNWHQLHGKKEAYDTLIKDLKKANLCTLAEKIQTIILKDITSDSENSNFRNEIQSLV
Method: ELANE lowers CD95 levels in cancer cells and reduced CD95 levels are associated with apoptosis. (FIG. 8A) Recombinant proteins (1 μg) corresponding to full length CD95 (FL-CD95), N-terminal domain of CD95 (amino acids 1-173; N-CD95), or C-terminal domain of CD95 (amino acids 157-320; C-CD95) were inbuated with ELANE (0.05 μg) or vehicle (Veh) for 2 hrs at 37° C. Degradation was assessed by SDS-PAGE followed by coomassie blue staining. […] (FIG. 8C) Cancer cells were treated with ELANE (50 nM) for 1 hr, fixed in 10% formalin, and stained with N- or C-terminal specific anti-CD95 antibodies (green). Hoechst 33342 solution was used for nuclear staining (blue). Images were taken under 40×.
ELANE selectively cleaves the C-terminal domain of CD95. The CD95 pathway is essential for the survival of a wide range of cancer cells, but largely dispensable for normal cell survival (Adachi et al., Nat. Genet., 1995; Karray et al., J. Immunol., 2004). CD95 function can be modulated by proteolysis (Strand et al., Oncogene, 2004). To test CD95 involvement in ELANE mediated cell killing ELANE (0.05 μg) was incubated with 1 μg recombinant human C-terminal (aa. 157-320) or N-terminal (aa. 1-173) CD95 for 2 hrs at 37° C. Degradation was assessed by SDS-PAGE followed by staining with coomassie blue. C-terminal domain cleavage. N-terminal domain cleavage. Cancer cells were treated with ELANE (50 nM) for 1 hr, fixed in 10% formalin, and stained with N- or C-terminal specific anti-CD95 antibodies. Hoechst 33342 solution was used for nuclear staining. Images were taken under 40×. […] Mel888 cancer cells were treated with ELANE (50 nM) for various times, and CD95 degradation was assessed by western blot analysis with a C-terminal specific anti-CD95 antibody.
as §1

| Molecule | cancer cell killing activity of purified protein [1] | cleavage of purified CD95 [3] | cancer cell killing by proteases [1] | also measured |
| --- | --- | --- | --- | --- |
| COc1cccc2c1C(=O)c1c(O)c3c(c(O)c1C2=O)C[C@@](O)(C(=O)CO)C[C@@H]3O[C@H]1C[C@H](N)[C@H](O)[C@H](C)O1 [doxorubicin, reference compound] |  |  |  | cancer cell killing in combination with neutrophil conditioned media [1]: enhanced cancer cell killing |
| CC(=O)O[C@H]1C(=O)[C@@]2(C)[C@H]([C@H](OC(=O)c3ccccc3)[C@]3(O)C[C@H](OC(=O)[C@H](O)[C@@H](NC(=O)c4ccccc4)c4ccccc4)C(C)=C1C3(C)C)[C@]1(OC(C)=O)CO[C@@H]1C[C@@H]2O [paclitaxel, reference compound] |  |  |  | cancer cell killing in combination with neutrophil conditioned media [1]: enhanced cancer cell killing |
| DEFA1: purified human DEFA1 (Abcam) | low amount of activity |  |  | binding to ELANE [2]: ELANE-binding proteins |
| cathepsin G [CTSG] |  | cleaved purified CD95 with an identical degradation pattern to ELANE | killed cancer cells |  |
| B1 | could not kill cancer cells |  |  | binding to ELANE [2]: ELANE-binding proteins |
| B2 | could not kill cancer cells |  |  |  |
| B3 |  | cleaved purified CD95 with an identical degradation pattern to ELANE | killed cancer cells |  |
| B4 |  | cleaved purified CD95 with an identical degradation pattern to ELANE | killed cancer cells |  |
